Measured values from patent US20230077531A1 (Sanofi, published 2023).
Positions count from the first letter of the chain named. Names may count otherwise. One block for each binder: values may come before it.

Experiments:
[1] = target: T1, FcγRIIIa V158 on HEK293T cells (human, UniProt P08637 17-254); experiment: FACS on HEK293T-FcγRIIIa cells, assay 1 n=3
T1 construct: whole, on cells

[2] = target: T2, FcγRIIIa F158 on HEK293T cells (human, UniProt P08637 17-254); experiment: FACS on HEK293T-FcγRIIIa cells, assay 1 n=3
T2 construct: whole, on cells; also called HEK293T-FcγRIIIa F158

[3] = target: T3, huFcγRIIIa_F158 His protein (human, UniProt P08637 17-208); experiment: SPR, His-receptor captured, assay 1 n=3
[4] = target: T4, huFcγRIIIa_V158 His protein (human, UniProt P08637 17-208); experiment: SPR, His-receptor captured, assay 1 n=3
T4 construct: also called His-tagged recombinant human FcγRIIIa-V158

human FcγRIIa H131 = target: T5, human FcγRIIa H131 (human, UniProt P12318 34-317, limits assumed); experiment: FACS, assay 1 n=3
T5 construct: FACS implies display on cells, but the methods name no FcγRIIa cell line; also called huFcγRIIa H131
T5 sequence (looked up): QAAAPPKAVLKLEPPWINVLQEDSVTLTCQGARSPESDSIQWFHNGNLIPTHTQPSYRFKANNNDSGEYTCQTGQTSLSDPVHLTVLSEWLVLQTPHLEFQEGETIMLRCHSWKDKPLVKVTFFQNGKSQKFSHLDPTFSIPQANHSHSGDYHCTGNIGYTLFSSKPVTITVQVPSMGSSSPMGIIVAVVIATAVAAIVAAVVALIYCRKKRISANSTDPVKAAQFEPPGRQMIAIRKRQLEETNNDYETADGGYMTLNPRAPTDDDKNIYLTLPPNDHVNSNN

human FcγRIIa R131 = target: T6, human FcγRIIa R131 (human, UniProt P12318 34-317, limits assumed); experiment: FACS, assay 1 n=3
T6 construct: FACS implies display on cells, but the methods name no FcγRIIa cell line; also called huFcγRIIa R131
T6 sequence (looked up): T5 sequence (looked up) with H134R

human FcRn [5] = target: T7, human FcRn (human, UniProt P55899 24-297); experiment: SPR pH 6.0, huFcRn captured, assay 1 n=3
T7 construct: also called huFcRn; recombinant human FcRn

[6] = target: T2, FcγRIIIa F158 on HEK293T cells; experiment: FACS on HEK293T-FcγRIIIa cells, assay 1 n=3; cell shifted up, taken as F158
human FcRn [7] = target: T7, human FcRn; experiment: SPR pH 6.0, huFcRn captured, assay 2 n=3
[8] = target: T1, FcγRIIIa V158 on HEK293T cells; experiment: FACS on HEK293T-FcγRIIIa cells, assay 2 n=1
[9] = target: T2, FcγRIIIa F158 on HEK293T cells; experiment: FACS on HEK293T-FcγRIIIa cells, assay 2 n=1
[10] = target: T3, huFcγRIIIa_F158 His protein; experiment: SPR, His-receptor captured, assay 2 n=3
[11] = target: T4, huFcγRIIIa_V158 His protein; experiment: SPR, His-receptor captured, assay 2 n=3
[12] = target: T1, FcγRIIIa V158 on HEK293T cells; experiment: FACS on HEK293T-FcγRIIIa cells, assay 1 n=3; bracketed value under the V158 cell
[13] = target: T2, FcγRIIIa F158 on HEK293T cells; experiment: FACS on HEK293T-FcγRIIIa cells, assay 1 n=3; bracketed value under the F158 cell

T7 sequence (P55899 24-297): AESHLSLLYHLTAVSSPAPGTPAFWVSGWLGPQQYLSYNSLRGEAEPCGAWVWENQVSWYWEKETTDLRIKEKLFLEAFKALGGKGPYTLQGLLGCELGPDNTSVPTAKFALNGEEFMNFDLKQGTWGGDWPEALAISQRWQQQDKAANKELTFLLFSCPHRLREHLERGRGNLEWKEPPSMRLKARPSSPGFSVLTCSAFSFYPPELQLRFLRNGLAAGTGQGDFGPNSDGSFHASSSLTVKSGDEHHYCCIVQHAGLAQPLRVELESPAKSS
T1 sequence (P08637 17-254 F176V): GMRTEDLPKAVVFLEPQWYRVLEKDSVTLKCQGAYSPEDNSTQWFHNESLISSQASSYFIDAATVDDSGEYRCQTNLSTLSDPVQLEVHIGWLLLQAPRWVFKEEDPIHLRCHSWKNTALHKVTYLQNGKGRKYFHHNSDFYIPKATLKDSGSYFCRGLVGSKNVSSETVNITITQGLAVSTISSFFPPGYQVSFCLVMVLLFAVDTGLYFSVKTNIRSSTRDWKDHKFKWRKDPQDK
T4 sequence (P08637 17-208 F176V limits assumed): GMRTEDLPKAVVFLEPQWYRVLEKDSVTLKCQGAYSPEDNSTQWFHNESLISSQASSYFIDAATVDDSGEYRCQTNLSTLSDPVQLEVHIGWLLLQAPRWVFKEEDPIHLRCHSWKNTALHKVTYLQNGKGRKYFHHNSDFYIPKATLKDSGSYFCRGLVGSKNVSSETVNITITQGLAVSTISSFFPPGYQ
T3 sequence (P08637 17-208 limits assumed): as the sequence (P08637 17-208 F176V limits assumed) above, with V160F counted along it
T2 sequence (P08637 17-254): as the sequence (P08637 17-254 F176V) above, with V160F counted along it

B1: mAb1-ADLE-L242C-K334C (antibody)
chain 1: QVQLVQSGAEVKKPGASVKVSCKASGYSFTSYGISWVRQAPGQGLEWMGWISTYKGYTQYAQNFQGRVTITTDTPATTVYMELRSLRSDDTAVYYCARVLSETGYFYYYYYGMDVWGQGTLVTVSSASTKGPSVFPLAPSSKSTSGGTAALGCLVKDYFPEPVTVSWNSGALTSGVHTFPAVLQSSGLYSLSSVVTVPSSSLGTQTYICNVNHKPSNTKVDKKVEPKSCDKTHTCPPCPAPELLAGPDVFCFPPKPKDTLMISRTPEVTCVVVDVSHEDPEVKFNWYVDGVEVHNAKTKPREEQYNSTYRVVSVLTVLHQDWLNGKEYKCKVSNKALPLPEECTISKAKGQPREPQVYTLPPSRDELTKNQVSLTCLVKGFYPSDIAVEWESNGQPENNYKTTPPVLDSDGSFFLYSKLTVDKSRWQQGNVFSCSVMHEALHNHYTQKSLSLSPG
chain 2: QAVVTQPPSVSGAPGQRVTISCTGSSSNIGADYNVHWYQLLPGTAPKLLIYGNTNRPSGVPDRFSGSKSGTSASLAITGLQAEDEADYYCQSYDSSLSASVFGGGTKLTVLGQPKAAPSVTLFPPSSEELQANKATLVCLISDFYPGAVTVAWKADSSPVKAGVETTTPSKQSNNKYAASSYLSLTPEQWKSHRSYSCQVTHEGSTVEKTVAPTECS
EC50 [1]: 5 nM
EC50 [2]: 11 nM
Kd [3]: 148 nM
Kd [4]: 161 nM
EC50 (human FcγRIIa H131): 145 nM
EC50 (human FcγRIIa R131): 428 nM
Kd (human FcRn [5]): 956 nM

B2: mAb1 (wt) (IgG1) (antibody)
chain 1: not shown
chain 2: B1 chain 2
EC50 [6]: 1060 nM
Kd (human FcRn [7]): 941 nM
EC50 [1]: 186 nM
EC50 [2]: 1060 nM
Kd [3]: 3870 nM
Kd [4]: 1620 nM
EC50 [8]: 244 nM
EC50 [9]: 744 nM
Kd [10]: 1330 nM
Kd [11]: 386 nM
EC50 (human FcγRIIa H131): 341 nM
EC50 (human FcγRIIa R131): 303 nM
Kd (human FcRn [5]): 1210 nM

B3: mAb1-ADE-R292C-V302C (antibody)
chain 1: B1 chain 1 with C251L, R301C, V311C, L339A, C343K
chain 2: B1 chain 2
EC50 [1]: 12 nM
EC50 [2]: 19 nM
Kd [3]: 211 nM
Kd [4]: 172 nM
EC50 (human FcγRIIa H131): 92 nM
EC50 (human FcγRIIa R131): 43 nM
Kd (human FcRn [5]): 1310 nM

B5: mAb1-ADE (antibody)
chain 1: B1 chain 1 with C251L, L339A, C343K
chain 2: B1 chain 2
EC50 [1]: 3 nM
EC50 [2]: 9 nM
Kd [3]: 150 nM
Kd [4]: 107 nM
EC50 (human FcγRIIa H131): 20 nM
EC50 (human FcγRIIa R131): 20 nM
Kd (human FcRn [5]): 1040 nM

B10: mAb1-DE (antibody)
chain 1: not shown
chain 2: B1 chain 2
Kd (human FcRn [7]): 761 nM
EC50 [1]: 2 nM
EC50 [2]: 11 nM
Kd [3]: 141 nM
Kd [4]: 57 nM
EC50 [8]: 4 nM
EC50 [9]: 18 nM
Kd [10]: 48 nM
Kd [11]: 17 nM
EC50 (human FcγRIIa H131): 106 nM
EC50 (human FcγRIIa R131): 198 nM
Kd (human FcRn [5]): 996 nM

B11: mAb1-ADLE-R292C-V302C (antibody)
chain 1: B1 chain 1 with C251L, R301C, V311C, C343K
chain 2: B1 chain 2
EC50 [1]: 12 nM
EC50 [2]: 25 nM
Kd [3]: 296 nM
Kd [4]: 258 nM
EC50 (human FcγRIIa H131): 155 nM
EC50 (human FcγRIIa R131): 144 nM
Kd (human FcRn [5]): 1130 nM

Further binders by falling EC50 [1], results first:

EC50 [1]: 10 nM
EC50 [2]: 17 nM
Kd [3]: 202 nM
Kd [4]: 214 nM
EC50 (human FcγRIIa H131): 101 nM
EC50 (human FcγRIIa R131): 45 nM
Kd (human FcRn [5]): 198 nM
B8: mAb1-ADE-DQ-R292C-V302C (antibody)
chain 1: B1 chain 1 with C251L, T265D, R301C, V311C, T316Q, L339A, C343K
chain 2: B1 chain 2

EC50 [1]: 7 nM
EC50 [2]: 19 nM
Kd [3]: 211 nM
Kd [4]: 191 nM
EC50 (human FcγRIIa H131): 68 nM
EC50 (human FcγRIIa R131): 152 nM
Kd (human FcRn [5]): 161 nM
B4: mAb1-ADE-DQ-L242C-K334C (antibody)
chain 1: B1 chain 1 with T265D, T316Q, L339A
chain 2: B1 chain 2

EC50 [1]: 5 nM
EC50 [2]: 18 nM
Kd [3]: 193 nM
Kd [4]: 162 nM
EC50 (human FcγRIIa H131): 102 nM
EC50 (human FcγRIIa R131): 142 nM
Kd (human FcRn [5]): 829 nM
B6: mAb1-ADE-L242C-K334C (antibody)
chain 1: B1 chain 1 with L339A
chain 2: B1 chain 2

EC50 [1]: 4 nM
EC50 [2]: 13 nM
Kd [3]: 183 nM
Kd [4]: 155 nM
EC50 (human FcγRIIa H131): 14 nM
EC50 (human FcγRIIa R131): 18 nM
Kd (human FcRn [5]): 217 nM
B7: mAb1-ADE-DQ (antibody)
chain 1: B1 chain 1 with C251L, T265D, T316Q, L339A, C343K
chain 2: B1 chain 2

Kd (human FcRn [7]): 811 nM
EC50 [1]: 3 nM
EC50 [2]: 4 nM
Kd [3]: 94 nM
Kd [4]: 77 nM
EC50 [8]: 5 nM
EC50 [9]: 7 nM
Kd [10]: 46 nM
Kd [11]: 22 nM
EC50 (human FcγRIIa H131): 70 nM
EC50 (human FcγRIIa R131): 85 nM
Kd (human FcRn [5]): 993 nM
EC50 [12]: 2.71 nM
EC50 [13]: 4.37 nM
B9: mAb1-ADLE (antibody)
chain 1: B1 chain 1 with C251L, C343K
chain 2: B1 chain 2
